# Laboratory results from the nanobody polyreactivity screen of Harvey et al. (2022).
# Test: yeast display, Sf9 membrane polyspecificity reagent, FACS + sequencing; frameworks hold sequencing errors
# Outline: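 A nanobody's polyreactivity label depends on the gate it was sorted from. Yeast display cells were stained with 10% biotinylated, detergent-solubilized Sf9 membrane reagent for 1 hour at 4 °C, enriched on streptavidin microbeads and sorted by FACS. The low and high (top ~1%) gates were set on anti-HA fluorescence for expression and streptavidin fluorescence for reagent binding.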
row,Sequence,polyreactivity (PSR sort gate)
1,QVQLVESGGGLVQAGGSLRLICAASGITFEVYAMGRYRLAPGKEMELVAVITSVGSTNYADSVKGRFTISRDNAKNTVYLQMNSLKPEDPAVYYCAALKWTVRRFNPYTYYRYDYWGQGTQVTVSS,low polyreactivity
2,QVQLVESGGGLVQAGGSLRLSCAASGSIFLYNAMGWYRQAPGKERELVAAISASGGSTYYADSVKGRFTISRDNAKNTVYLQMNSLKPEDTEVYFCAAQYSDYDGFTWPLPPRYDYWGQGTQVTVSS,high polyreactivity
3,QVQLVESGGGLVQAGGSLRLSCAASGFTFTSFAMGWYRQAPGKERELVAAISARGGRTNYADSVKGRFTISRDNAKNTVYLQKNSLKPEDTAVYYCAADGFRAAYLYDYWGQGTQVTVSS,high polyreactivity
4,QVQLVESGGGLVQAGGSLRLSCAASGSTFEAYAMGWYRQAPGKERELVAAINFTGGRTYYADSVKGRFTISRDNAKNTVYLQINSLKPEDTAVYYCAARKWGVPYIDNDYWGQGTQVTVSS,low polyreactivity
5,QVQLVESGGGLVQAGGSLRLSCAASGSTLSQYAMGWYRQAPGKERELVAAISGGGRTYYADSVKGRFTISRDNAKNTVYLQMNSLKPEDTAVYYCAKVRLKKGTRDSYDYWGQGTQVTVSS,high polyreactivity
6,QVQLVESGGGLVQAGGSLRLSCSASGGTFSYYAMGWYRQAPGKERELVASISTDGGSTYYADSVKGRFTISRDNAKNTVYLQMNSLKPEDTAVYYCNARPRGYSDRYGYWGQGTQVTVSS,high polyreactivity
7,QVQLVESGGGLVQAGGSLRLSCAASGSTLSWYAMGWYRQAPGKERELVAAITRGGSTYYADSVKGRFTISRDNAKNTVYLQMNSLKPEDTAVYYCNAGRDGSRFQYRYDYWGQGTQVTVSS,low polyreactivity
8,QVQLVESGGGLVQAGGSLRLSCASSGRIYVYTMGWYRQAPGKERELVATITRSGGSTYYADSVKGRFTISRDNAKNTVYLQMNSLKPEDTAVYYCNAVGRFTPYSSRREYDYWGQGTQVTVSS,low polyreactivity
9,QVQLVESGGGLVQARGSLRLSCASSGSTFGGYAMGWYRQAPGKERELVPAITRSGGSTYYADSVKGRFTISRDNGKNTVYLQMNSLKPEDTAVYYCAARVPRGDRPGYHYAYYYWGQGTQVTVSS,high polyreactivity
10,QVQLVESVGGLVQAGGSLRLSCAASGSIFVRNAMGWYRQAPGKERELVAGISRSGGSTNYADSVKGRFTISRDNAKNTVYLQMNSLKPEDTAVYYCAASRLVWVGRPWYQVRGDYWGQGTHVTVSS,high polyreactivity
11,QVQLVESGGGLVQAGGSLRLSCAASGSIFGYYGMGWYRQAPGKERELVATITSGGSTNYADSVKGRFTISRDNAKNTVYLQMNSLKPEDTAVYYCARQYGYQPERYGYWGQGTQVTVSS,low polyreactivity
12,QVQLVESGGGLVQAGGSLRLSCAASGSTFRLNAMGWYRQAPGKERELVAAISWTGGSTYYADSVKGRFTISRDNAKNTVYLQMNSLKPEDTAVYYCAADWWQGTSHYWGGAYNYWGQGTQVTVSS,low polyreactivity
13,QVQHVESGGGLVQAGGSLRLSCAASGSTFPGYAMGWYRQAPGKERELVAAISKRGGSTRYADSVKGRFTISRDNAINTVYLQMNSLKPEDTAVYYCAASYSYSGSGGGYWGQGTQVTVSS,high polyreactivity
14,QVQLVESGGGLVQAGGSLRLSCAPSGGTYIYAIGWYRQAPGKERDLVAVITSRSGSTYYADSVKGRFTISRDNAKNTVYLQMISLKPEDTAVYYCAAYTRVRTDPGTSFGYWGQCTQVTVSS,high polyreactivity
15,QVQLVESGGGLVQAGGSLRLSCAASGRIFQYYAMGRYGQAPGKERELVARISSRGGSTYYADSVKGRFTISRDNAKNTVYLQMNSLKPEDTAVYYCNTRWYSSYYQPSYNYWGQGTQVTVSS,high polyreactivity
16,QVQLVESGGGLVQAGGSLRLSCAASGYILPHNAMGWSRQAPGKDGEMVAAITSSGGSTYYADSVKGRVTISRDNAKNTVYLQMNSLKPEDTAVYYCNTDQYSPYEYSSFDSWGQGTQVTVSS,low polyreactivity
17,QVQLQESGGGLVQAGGSLRLSCAASGSIFDYVSMGWYRQAPGEERELVVTITLGSNTYYADSVKGRFTISSDIAKNSVYLQMNSLNPEDTAVYYCAASALWGYVYPYWGLGTQVTVSS,high polyreactivity
18,QVQLHESGGGLVQAGGGLRLSCAASGSISSTGFMGWYRQAPGKESEPVAAIAPGTTTYYADSVKGRFTISRDNAKNTVYLHMKSLRPEDTAVYYCAVFTDNRVAFLYWGEGTQVTVSS,low polyreactivity
19,QVQLVESGGGLVQAGGSLRLSCAASGFTFFSNAMGWYRQAPGKERELVAAITSSGGSTYADSVKGRFTISRDNAKNTVYLQMNSLKPEDTAVYYCAADAEAPPGGFKEYDYWGHGTQVTVSS,low polyreactivity
20,QVQLVESGGGLVQAGGSLRLSCAASGSIFAYYTMGWSRQAPGKERELVAAITSGGSTNYADSVKGRFTISRDNAKNTVYLQMNSLKPEDTAVYYCAVQGSRYSYRYGYRFRTMDYWGQGTQVTVSS,high polyreactivity
21,QVQLVESGGGLVQAGGSLRLSCAASGFTFSRNAMGWYRQAPGKERELVAAISQSGGSTYYADSVKGRFTISRDNAKNTVYLQMNSRKPEDTAVYYCAATGWIIIKPTSSLKFNYWGQGTQVTVSS,high polyreactivity
22,QVQLVDSGGGLVQAVGSLRLSCAASGRTLGAYAMGWYRQAPGKEREFVARITYGGRTFYADSVKGRFTISRDNAKNTVYLQMNSLKPEDTAVYYCATKLPYRWYDYWGQGTQVTVSS,high polyreactivity

row,Sequence,polyreactivity (PSR sort gate)
1,QVQLVDSGRGLFQAGGSLRLSCAASGRTSSSNVMGWYRQAPGKERELVASINEGGNTYYADSVKGRFTISRDNATNTVYLQMNSLKPEDTAVYYCATEESGYSSWYGYGYSYDYWGQGTQVTVSS,low polyreactivity
2,QVQLVESGGGLVQAGGSLRLSCAASGRTFLRYAMGWYRQAPGKERELVAAITYGGRTNYADSVKGRFTISRDNAKNTVYLQMNSLKPEDTAVYYCAADRTYYYGLRVDYWGQGTQVTVSS,high polyreactivity
3,QVQLVESVGGLVQAGGSLRLSCAASGIFVDNAMGWYRQAPGTETELVAPITSSTDSTYYADSVKGRFTISRDNAKNTVALQMNSLKPEDTAVYYCAVARPGGFYFLVHYGYGYWGQGTQVTVSS,low polyreactivity
4,QVQLVESGGGLVQAGGSLRLICADSGSIFDGNVMGWYRQAPGKERDLVAAISGARTNYADSVKGRFTISRDNAKNTVYLQMNSLKAEDTAVYYCNVLPVGSEYDYWGQGTQVTVST,low polyreactivity
5,QVQHVESGGGLVQAGGSLRLSCAASGFTSIMYAMGWYRQAPGKERDLVASISISDGSTYYADSVKGRFTISRDNAKNTVYLQMNILKPEDTAVYYCAADVYVWYTYSYDYWGQGTKVTVSS,low polyreactivity
6,QVQLVESGGGLVQAGGSLRLSCAASGFTFVAYAMGWYRPAPGKERELVAAIRRTDTSTYYADSVKGRFTISRDNAKNTVYLQMNSLKPEDTAVYYCAADYWRRTYLGFDYWGQGTQVTVSS,low polyreactivity
7,QDQLVESGGGLVQAGGSLRLSCAASGSIFADYAMGWYRQAPGKERELVAVISRRGGTTYYADSVKGRFTISRDNAKNTVYLQMNSLKPEDTAVYYCAARRSFNEYDSWGHGTQVTVSS,high polyreactivity
8,QVQLVESGGGLVQAGGSLRLSCAASGRTFYIYAMGWYRQAPGKERELVAGITYSGGRTYYADSVKGRFTISRDNAKNTVYLQMNSLKPEDTAVYYCAARPYLTTEGPYNYWGQGTQVTVSS,low polyreactivity
9,QVQLVESGGRLVQAGGSLRLSCAPSGRTFGVYAMGWYRQAPGKERELVAVISSSSGSTYYADSVKGRFTISRDNAKNTVYLQMNSLKPEDTAVYYCAADFFYESFRDDYWGQGTQVTVSS,low polyreactivity
10,QVQIVESGGGLVQAGASLRLSCAASGSISKSYAMGWYRQAPGKERELVAAISWRGGSTYADSVKGRFTISRDNAENTVYSLMNSLKPEDTAVYYCAATNYGSFWGGQSERYDYWGQGTQVTVSS,low polyreactivity
11,QVQLVESGGGLVQAGGSLRISCAASGFIFRYYTMGWYRQAPGKERELVATITSGGSTYYADSVKGRFTISRDNAKNTVYLQMNSLKPEDTAVYYCAKVRDVLWRFNYWGQGTEVTVSS,high polyreactivity
12,QVQLVESGGGLVQAGGSLRLSCAASGSILFKNAMGWYRQAPGKERELVAAISTSGGRTYYADSVKGRFTISRDNAKNTVSLQMNSLKPEDTAVYYCAAVYPRQVSQVWRDDYWGQGTQVTVSS,high polyreactivity
13,QVQLVESGGGLVQAGGSLRLSCAASGSTFSYYAMGWYRQAPGKERELVAAITRSGGRTYYADSVKGRFTISRDNAKNTVYLQMNSLKPEDTAVYYCAALSVGTRRDYWGQGTQVTVSS,low polyreactivity
14,QVQLVESGGGLVQAGGSLRLSCAASGSIFWYNAMAWYRQAPGKERELVAAITGTGDRTYYADSVKGRFTISRDNAKNSVYLQMNSLKPEDSAVYYCAAAYGAYYPWGYDYWGQGTQVTVSS,low polyreactivity
15,QVQLVESGGGLVQAGVSLRLSCAASGFTIKLYAMGWYRQAPGKERELVAAISSSGGSTYYADSVKGRFTISRDNAKNTVYLQMISLKPEDTAVYYCAARTRHVHYGYWGQGTQVTVSS,high polyreactivity
16,QVQLGESGGGLVQAGGSLRLSCAASGSTRGYTMGWYRQAPGKERELVAVISYSGGRTYYADSVKGRFTISRDNAKNTVYLQMNSLKPEDTAVYYCNAYYYQFRGIRVSGGYWGQGTQVTVSS,high polyreactivity
17,QVQLVESGGGLVQAGGSLRLICAASGRIFLENALGWYRQAPGKERELVATISNGGSTSYADSVKGRFTISRDNAKNKVYLQMISLKPEDTSVYYCAADYCWPYILYGYDYWGEGTQVTVSS,low polyreactivity
18,QVQLVESGGGLVQAGCSLRISCAASGFIFKRNAMGWYRQAPGKERELVAAITWRGGSTYYADSVKGRFTISRDTAKNTVYLQMNSLKPEDTAVYYCAADSYYPRGYRTGWSESAYVSWGQGTLVTVSS,high polyreactivity
19,QVHLVESGGGLVQARGSLRLSCAAYGRIFGRNAMGWYRQAPGKERELVAVITFSGGDTFYADSVKGRFTISRDNAKNTVYLQMNSLKPEDTAVYYCAKSQGFETYRNVSIFGYWGQGTQVTVSS,low polyreactivity
20,QVQRVESWGGLVQAGGSLRLSCAASGSTFEYNAMGWNRQAPGKEREFVAAISRTGSRTYYADSVKGRFTISRDNAKNTVYLQMNSLKPEDTAVYYCARVKSRLQVGYYYWGQGTQVTVSS,high polyreactivity
21,QVQLVESGGGLVQAGGSLRLSCAASGRTFWSYAMGWYRQAPGKERELVATITGRGGSTYYADSVKGRFTISRDNAKNTVYLQMNSLKPEDTAVYYCARSQYSRSPSRMGYWGQGTQVTVSS,high polyreactivity
